Experimental data from US20090305971A1 (YALE UNIVERSITY, published 2009).

B3: AP-Am-Nogo-B (alkaline phosphatase fusion protein with residues 1-200 at the amino terminus of human Nogo-B) (ligand, UniProt Q9NQC3-2 1-200, looked up)
chain: MEDLDQSPLVSSSDSPPRPQPAFKYQFVREPEDEEEEEEEEEEDEDEDLEELEVLERKPAAGLSAAPVPTAPAAGAPLMDFGNDFVPPAPRGPLPAAPPVAPERQPSWDPSPVSSTVPAPSPLSAAAVSPSKLPEDDEPPARPPPPPPASVSPQAEPVWTPPAPAPAAPPSTPAAPKRRGSSGSVVVDLLYWRDIKKTGV
notes: range 1-200; also called full-length AP-Am-Nogo-B; APNogo200; not shown: placental alkaline phosphatase coding region of vector pcAP-5
B5: Nogo-B receptor (NgBR), endogenous, on human umbilical vein endothelial cells (HUVEC) (receptor)
chain: SWLRVRFGTWNWIWRRCCRAASAAVLAPLGFTLRKPPAVGRNRRHHRHPRGGSCLAAAHHRMRWRADGRSLEKLPVHMGLVITEVEQEPSFSDIASLVVWCMAVGISYISVYDHQGIFKRNNSRLMDEILKQQQELLGLDCSKYSPEFANSNDKDDQVLNCHLAVKVLSPEDGKADIVRAAQDFCQLVAQKQKRPTDLDVDTLASLLSSNGCPDPDLVLKFGPVDSTLGFLPWHIRLTEIVSLPSHLNISYEDFFSALRQYAACEQRLGK
notes: The assays were done on untransfected HUVEC; also called native HUVEC; endogenous NgBR
B6: human Nogo-B receptor (NgBR), expressed from the cloned cDNA on transfected COS-7 or CHO cells (receptor)
chain: SWLRVRFGTWNWIWRRCCRAASAAVLAPLGFTLRKPPAVGRNRRHHRHPRGGSCLAAAHHRMRWRADGRSLEKLPVHMGLVITEVEQEPSFSDIASLVVWCMAVGISYISVYDHQGIFKRNNSRLMDEILKQQQELLGLDCSKYSPEFANSNDKDDQVLNCHLAVKVLSPEDGKADIVRAAQDFCQLVAQKQKRPTDLDVDTLASLLSSNGCPDPDLVLKFGPVDSTLGFLPWHIRLTEIVSLPSHLNISYEDFFSALRQYAACEQRLGK
notes: also called Am-Nogo receptor; Am-NgR

Columns and labels:
[1] = target: B5; test: surface binding of AP proteins to HUVEC (FIG. 12)
[2] = target: B6; test: surface binding of AP proteins to CHO cells expressing NgBR (FIG. 11)
[3] = target: B5; test: surface binding of AP proteins to HUVEC (FIG. 15)
[4] = target: B6; test: surface binding of AP proteins to CHO cells expressing NgBR (FIG. 14)
[5] = target: B5; test: AP-fusion binding to HUVEC at 4 C, AP activity read-out, Scatchard plot (FIGS. 4 and 5)
Protocol: (§1) To detect AP-Am-Nogo-B binding, cultures were washed with Hanks' balanced salt solution (HBSS) containing 20 mM HEPES, pH 7.5, and 1 mg/mL BSA (HBH). The plates were then incubated with AP-Am-Nogo-B in DMEM containing 20 mM Hepes, pH 7.5, and 1 mg/mL BSA for 2 hours at 4° C. The bound AP-Am-Nogo-B was detected by using the Blue Substrate kit (Vector Laboratories). The blue staining was examined by using the ODYSSEY Infrared Imaging System (Li-Cor, Lincoln, Nebr.) and confirmed by microscopy. Alternatively, the bound AP-Am-Nogo-B was extracted with Triton X-100, and AP activity was colorimetrically quantified by using p-nitrophenyl phosphate (Sigma) as substrate after heat inactivation of endogenous AP. Non-specific binding was determined by measuring binding in the presence of a 100-fold molar excess of recombinant Am-Nogo-B lacking the AP fusion protein. Specific binding was determined by subtracting the non-specific binding from total binding. For determination of apparent Kd, the binding of AP-Am-Nogo-B was measured in triplicate as described above and the Kd value was quantified by using the Scatchard plot program of GraphPad PRISM (one-site binding, linear regression) using the ratio of bound ligand to free ligand as the y axis and bound ligand (pM) as the x axis.

[6] = target: B6; test: AP-fusion binding to CHO cells transiently transfected with NgBR cDNA, Scatchard plot (FIG. 7)
Protocol: as §1

[7] = target: B3; test: blocking of AP-Am-Nogo-B binding to endothelial cells (FIG. 34)
[8] = target: T1, AP (recombinant alkaline phosphatase alone) (UniProt P05187 23-511); test: surface binding of AP proteins to HUVEC (FIG. 12)
T1 construct: Control protein without a Nogo part; also called AP alone
T1 sequence (P05187 23-511): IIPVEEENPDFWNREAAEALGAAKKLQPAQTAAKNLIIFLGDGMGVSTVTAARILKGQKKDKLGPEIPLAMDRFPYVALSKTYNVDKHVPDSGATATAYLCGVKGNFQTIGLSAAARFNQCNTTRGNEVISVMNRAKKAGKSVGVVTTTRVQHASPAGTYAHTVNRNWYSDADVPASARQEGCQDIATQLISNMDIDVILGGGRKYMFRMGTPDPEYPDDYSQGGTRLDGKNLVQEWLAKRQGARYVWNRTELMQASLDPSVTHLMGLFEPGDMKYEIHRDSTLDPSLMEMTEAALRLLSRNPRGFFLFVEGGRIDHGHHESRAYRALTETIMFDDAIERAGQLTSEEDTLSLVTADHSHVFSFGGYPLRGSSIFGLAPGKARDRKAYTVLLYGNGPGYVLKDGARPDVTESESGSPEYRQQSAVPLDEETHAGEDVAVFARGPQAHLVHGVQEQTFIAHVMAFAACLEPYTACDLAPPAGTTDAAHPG

[9] = target: T1, AP (recombinant alkaline phosphatase …); test: AP-fusion binding to COS cells transfected with the NgBR cDNA, AP staining (FIG. 6)
Protocol: as §1, with “axis. […]” for “axis.”

B1: AP-Nogo-B (amino acids 1-180) (ligand, UniProt Q9NQC3-2 1-180, looked up)
chain: MEDLDQSPLVSSSDSPPRPQPAFKYQFVREPEDEEEEEEEEEEDEDEDLEELEVLERKPAAGLSAAPVPTAPAAGAPLMDFGNDFVPPAPRGPLPAAPPVAPERQPSWDPSPVSSTVPAPSPLSAAAVSPSKLPEDDEPPARPPPPPPASVSPQAEPVWTPPAPAPAAPPSTPAAPKRRG
notes: range 1-180; Construction not described; also called AP-Nogo-B (1-180); not shown: alkaline phosphatase part of the AP fusion
binding result [1]: no binding
binding result [2]: no binding

B2: AP-Nogo-A (59-172) (ligand, UniProt Q9NQC3 59-172, looked up)
chain: PAAGLSAAPVPTAPAAGAPLMDFGNDFVPPAPRGPLPAAPPVAPERQPSWDPSPVSSTVPAPSPLSAAAVSPSKLPEDDEPPARPPPPPPASVSPQAEPVWTPPAPAPAAPPST
notes: also called AP-Am-Nogo-A domains; not shown: alkaline phosphatase part of the AP fusion
binding result [3]: no binding
binding result [4]: no binding

B3
Kd [5]: 9.7 nM
Kd [6]: 2.74 nM

B4: mFc-ecto (Fc fusion of amino acids 52-116 of NgBR, HA- and heptahistidine-tagged) (Fc fusion)
chain: LGFTLRKPPAVGRNRRHHRHPRGGSCLAAAHHRMRWRADGRSLEKLPVHMGLVITEVEQEPSFSD
notes: Purified from conditioned media of mammalian cells; also called mFc fusion with the NgBR domain; mFc-NgBR-ectodomain; not shown: mFc, the Fc fragment of IgG; HA tag; heptahistidine tag
binding result [7]: binds

B5
binding result [8]: no binding

B6
binding result [9]: no binding
